Target: T1, Bacillus licheniformis subtilisin A (Bacillus licheniformis, UniProt P00780 106-379)
T1 sequence (looked up): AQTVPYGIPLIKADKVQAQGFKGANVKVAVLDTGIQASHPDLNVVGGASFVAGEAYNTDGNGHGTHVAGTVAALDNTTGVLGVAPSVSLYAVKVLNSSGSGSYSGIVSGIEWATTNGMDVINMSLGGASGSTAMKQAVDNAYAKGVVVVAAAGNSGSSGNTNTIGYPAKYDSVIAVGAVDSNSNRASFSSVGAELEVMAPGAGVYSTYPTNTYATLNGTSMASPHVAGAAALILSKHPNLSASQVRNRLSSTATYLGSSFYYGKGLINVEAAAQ
Assay: enzyme inhibition assay

- fold decrease of IC50 against rCmPI-II: 3 fold
Binder: AEDCVGRKACTAEWYPVCGSDGVTYSNPCNFSAQQEQCDPNITIAHMGEC (natural protein, Cenchritis muricatus, UniProt P84755 1-50, looked up) [rCmPI-II R12A, alanine mutant at the P1 position of CmPI-II]

Reference: publication PMC8131977 (Biochemistry and Biophysics Reports, 2021)
